Target: alpha-thrombin (UniProt P00734;P00734 P00734:328-363,P00734:364-622)
Assay: binding in 5% human serum, 0.1-100 nM thrombin, 30 pM MB-Carrier; comparable to 0.1 M KCl

Does AGGTCGCCGCCCTCCAACGGTTGGTGTGGTTGG (structured_DNA, internal FAM on T13; 3' DABCYL) [TBA-embedded molecular beacon on lambda-DNA carrier (MB-Carrier)] bind?
Result: binds
